Measurements reported in article doi:10.1101/2021.04.13.439655.

Molecular target: full-length Smad2, wild type (S2FLWT), Q15796
Test: SAXS with ensemble optimization method
Conditions: remark: other sources report otherwise

percent of the population as dimer at 56 μM: 18% | percent of the population as trimer at 13.8 μM: 1% | percent of the population as trimer at 56.1 μM: 16.4%
B1: full-length Smad2, wild type (S2FLWT), Q15796 1-467 (natural protein)
chain: MSSILPFTPPVVKRLLGWKKSAGGSGGAGGGEQNGQEEKWCEKAVKSLVKKLKKTGRLDELEKAITTQNCNTKCVTIPSTCSEIWGLSTPNTIDQWDTTGLYSFSEQTRSLDGRLQVSHRKGLPHVIYCRLWRWPDLHSHHELKAIENCEYAFNLKKDEVCVNPYHYQRVETPVLPPVLVPRHTEILTELPPLDDYTHSIPENTNFPAGIEPQSNYIPETPPPGYISEDGETSDQQLNQSMDTGSPAELSPTTLSPVNHSLDLQPVTYSEPAFWCSIAYYELNQRVGETFHASQPSLTVDGFTDPSNSERFCLGLLSNVNRNATVEMTRRHIGRGVRLYYIGGEVFAECLSDSAIFVQSPNCNQRYGWHPATVCKIPPGCNLKIFNNQEFAALLAQSVNQGFEAVYQLTRMCTIRMSFVKGWGAEYRRQTVTSTPCWIELHLNGPLQWLDKVLTQMGSPSVRCSSMS
